Data taken from patent publication US20230265134A1.

Molecular target: Ustekinumab lambda fusion light chain (human)
Test: LCMS of Fabs cleaved from IgG; 2 HC + 2 LC co-expressed in HEK293

## Panitumumab heavy chain, CH1 K147F S183K (from UniProt P01857 1-101)
  % HC1-LC2 product: 0%
